Starred links: 1 amine or outer side, 2 acyl side, 3 side chain; linkers in the order of their positions; H or OH if unused. Positions of bridges follow the written chain, without caps; N, C: chain ends. Non-standard residues stand in square brackets, D forms with d. Primed or numbered codes have the meaning given here. *: point of attachment. PyrS2″ = (S)-3-amino-1-((pent-4-en-1-yloxy)carbonyl)pyrrolidine-3-carboxylic acid (stapling residue), C=CCCCOC(=O)N1CC[C@@](N[*:1])(C(=O)[*:2])C1; B5(5) = 2,2-bis(4-pentenyl)glycine, 2-amino-2-(pent-4-en-1-yl)hept-6-enoic acid (stitching residue), C=CCCCC(CCCC=C)(N[*:1])C(=O)[*:2]; TfeGA = (S)-2-amino-3-((carboxymethyl)(2,2,2-trifluoroethyl)amino)propanoic acid, O=C([C@H](CN(CC(=O)[*:3])CC(F)(F)F)N[*:1])[*:2]; PyrS2 = (S)-3-amino-1-((pent-4-en-1-yloxy)carbonyl)pyrrolidine-3-carboxylic acid, C=CCCCOC(=O)N1CC[C@@](N[*:1])(C(=O)[*:2])C1; PyrS3 = (S)-3-amino-1-((hex-5-en-1-yloxy)carbonyl)pyrrolidine-3-carboxylic acid, C=CCCCCOC(=O)N1CC[C@@](N[*:1])(C(=O)[*:2])C1; B5(13) = 2-amino-2-(pent-4-en-1-yl)hept-6-enoic acid (two alkene chains), C=CCCCC(CCCC=C)(N[*:1])C(=O)[*:2]; B5(3) = 2,2-bis(4-pentenyl)glycine (stitching residue), C=CCCCC(CCCC=C)(N[*:1])C(=O)[*:2]; mPEG2 = N-terminal 3-(2-methoxyethoxy)propanoic acid, COCCOCCC(=O)*; Phe(2-Cl) = N[C@@H](Cc1ccccc1Cl)C(=O)O; Phe(2-OMe) = COc1ccccc1C[C@H](N)C(=O)O; 1Nal = N[C@@H](Cc1cccc2ccccc12)C(=O)O; 2Nal = N[C@@H](Cc1ccc2ccccc2c1)C(=O)O; Phe(2-Me) = Cc1ccccc1C[C@H](N)C(=O)O; Bta = N[C@@H](Cc1csc2ccccc12)C(=O)O; Lys(iPr) = CC(C)NCCCC[C@H](N)C(=O)O; αAllylPro = C=CC[C@@]1(C(=O)O)CCCN1; tBuAla = CC(C)(C)C[C@H](N)C(=O)O; 2Thi = N[C@@H](Cc1cccs1)C(=O)O; 3Thi = N[C@@H](Cc1ccsc1)C(=O)O; hLeu = CC(C)CC[C@H](N)C(=O)O

The first assay deals with T1, B-cat-Halo (UniProt P35222 1-781).
T1 sequence (looked up): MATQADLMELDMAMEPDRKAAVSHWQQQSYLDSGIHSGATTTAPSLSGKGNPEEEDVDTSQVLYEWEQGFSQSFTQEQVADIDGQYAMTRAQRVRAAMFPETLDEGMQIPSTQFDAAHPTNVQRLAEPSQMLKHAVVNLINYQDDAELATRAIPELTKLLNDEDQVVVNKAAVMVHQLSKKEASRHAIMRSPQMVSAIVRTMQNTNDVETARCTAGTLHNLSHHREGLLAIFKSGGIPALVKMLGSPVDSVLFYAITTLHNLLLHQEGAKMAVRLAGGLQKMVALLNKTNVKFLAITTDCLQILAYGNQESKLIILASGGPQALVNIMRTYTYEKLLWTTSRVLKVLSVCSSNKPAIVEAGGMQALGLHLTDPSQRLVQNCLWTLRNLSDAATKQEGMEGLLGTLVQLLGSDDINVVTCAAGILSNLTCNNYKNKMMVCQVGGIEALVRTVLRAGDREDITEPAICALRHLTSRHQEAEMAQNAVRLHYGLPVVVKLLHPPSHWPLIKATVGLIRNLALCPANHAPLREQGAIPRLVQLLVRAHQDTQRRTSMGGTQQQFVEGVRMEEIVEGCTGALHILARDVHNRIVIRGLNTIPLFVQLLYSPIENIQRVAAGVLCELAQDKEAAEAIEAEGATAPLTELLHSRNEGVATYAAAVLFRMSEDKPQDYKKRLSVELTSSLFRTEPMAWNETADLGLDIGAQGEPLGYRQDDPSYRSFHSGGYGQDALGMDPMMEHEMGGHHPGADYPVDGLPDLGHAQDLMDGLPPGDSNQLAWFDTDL
Briefly: cell-based or functional assay.
As for mPEG2-[αAllylPro]D[tBuAla][B5(5)]DDAAFN[PyrS2″][Phe(2-Cl)][Bta][dT]-NH2 (staple 1-4, 4-11) [I-1253], the “NanoBRET Abs IC50” value is over 20 µM.

The next assay addresses T2, B-cat-Halo (UniProt P35222 1-781).
T2 sequence (looked up): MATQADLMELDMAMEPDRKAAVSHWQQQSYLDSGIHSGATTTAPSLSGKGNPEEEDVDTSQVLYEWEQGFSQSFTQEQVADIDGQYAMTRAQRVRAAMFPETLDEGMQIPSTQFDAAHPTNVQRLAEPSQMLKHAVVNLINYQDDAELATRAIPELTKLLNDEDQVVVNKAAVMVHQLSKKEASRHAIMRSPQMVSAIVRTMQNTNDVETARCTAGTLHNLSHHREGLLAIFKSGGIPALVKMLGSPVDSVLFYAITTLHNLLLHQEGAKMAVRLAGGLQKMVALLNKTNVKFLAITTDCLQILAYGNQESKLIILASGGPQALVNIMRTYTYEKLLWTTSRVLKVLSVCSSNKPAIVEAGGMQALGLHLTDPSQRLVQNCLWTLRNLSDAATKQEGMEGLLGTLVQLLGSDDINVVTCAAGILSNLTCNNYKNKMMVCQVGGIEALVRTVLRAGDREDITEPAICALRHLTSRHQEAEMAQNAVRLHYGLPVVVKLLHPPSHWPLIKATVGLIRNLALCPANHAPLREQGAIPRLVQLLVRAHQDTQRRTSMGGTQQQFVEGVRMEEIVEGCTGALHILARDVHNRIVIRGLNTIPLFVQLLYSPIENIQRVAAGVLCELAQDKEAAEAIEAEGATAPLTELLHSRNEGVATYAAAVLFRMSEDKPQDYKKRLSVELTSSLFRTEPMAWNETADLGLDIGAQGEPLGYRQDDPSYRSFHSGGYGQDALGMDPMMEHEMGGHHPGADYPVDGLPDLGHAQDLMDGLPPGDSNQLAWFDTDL
The experiment in a line: cell-based or functional assay.
Regarding Ac-[αAllylPro]D[tBuAla][B5(3)]D[TfeGA]AAFT[PyrS2″][Phe(2-Cl)][Bta][Lys(iPr)]-NH2 (staple 1-4, 4-11) [I-1615], the “NanoBRET Abs IC50” value was determined as 8 µM.

The next assay addresses T3, B-cat-Halo (UniProt P35222 1-781).
T3 sequence (looked up): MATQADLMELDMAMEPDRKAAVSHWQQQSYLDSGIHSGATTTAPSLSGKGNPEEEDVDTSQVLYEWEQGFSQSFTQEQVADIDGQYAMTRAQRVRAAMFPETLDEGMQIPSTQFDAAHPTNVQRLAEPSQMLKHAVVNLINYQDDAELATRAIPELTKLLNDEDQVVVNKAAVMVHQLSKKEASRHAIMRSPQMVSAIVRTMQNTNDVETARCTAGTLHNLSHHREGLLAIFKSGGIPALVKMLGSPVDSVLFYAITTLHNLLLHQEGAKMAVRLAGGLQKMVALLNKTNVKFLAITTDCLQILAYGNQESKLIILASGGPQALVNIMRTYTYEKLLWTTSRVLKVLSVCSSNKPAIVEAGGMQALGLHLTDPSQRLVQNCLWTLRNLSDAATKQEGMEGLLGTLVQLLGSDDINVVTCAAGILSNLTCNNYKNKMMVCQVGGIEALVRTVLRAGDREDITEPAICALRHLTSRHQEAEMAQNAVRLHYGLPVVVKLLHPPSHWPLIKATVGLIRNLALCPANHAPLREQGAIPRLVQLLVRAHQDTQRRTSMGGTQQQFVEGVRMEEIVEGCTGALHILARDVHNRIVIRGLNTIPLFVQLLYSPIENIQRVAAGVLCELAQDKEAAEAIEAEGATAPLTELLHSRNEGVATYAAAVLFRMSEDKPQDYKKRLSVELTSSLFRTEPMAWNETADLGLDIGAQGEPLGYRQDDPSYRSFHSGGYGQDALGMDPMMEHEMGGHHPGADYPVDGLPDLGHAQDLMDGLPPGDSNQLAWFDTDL
The experiment in a line: cell-based or functional assay.
As for Ac-[αAllylPro]D[tBuAla][B5(13)]DDAAFN[PyrS2][Phe(2-OMe)][Bta]H-NH2 (staple 1-4, 4-11) [I-781], the “NanoBRET Abs IC50” value was 31 µM. As for Ac-[αAllylPro]D[tBuAla][B5(13)]DDAAFN[PyrS2]F[Bta]H-NH2 (staple 1-4, 4-11) [I-777], the “NanoBRET Abs IC50” value came to 19.8 µM. The same measure, in the same setting: the value for Ac-[αAllylPro]D[tBuAla][B5(3)]DDAAFN[PyrS2][Phe(2-Cl)][Bta]H-NH2 (staple 1-4, 4-11) [I-784] was 14.5 µM; that for Ac-[αAllylPro]D[tBuAla][B5(3)]DDAAFN[PyrS2][3Thi][1Nal]H-NH2 (staple 1-4, 4-11) [I-789] was over 20 µM. Same read-out and setting: the value for Ac-[αAllylPro]D[tBuAla][B5(13)]DDAAFN[PyrS2][Phe(2-Me)][Bta]H-NH2 (staple 1-4, 4-11) [I-782] was 12.2 µM. Ac-[αAllylPro]D[tBuAla][B5(13)]DDAAFN[PyrS3][3Thi][Bta]H-NH2 (staple 1-4, 4-11) [I-776]: the “NanoBRET Abs IC50” value worked out at 45.7 µM. For Ac-[αAllylPro]D[tBuAla][B5(3)]DDAAFN[PyrS2][3Thi][Bta]-NH2 (staple 1-4, 4-11) [I-785], the “NanoBRET Abs IC50” value was 21.6 µM. Take Ac-[αAllylPro]D[tBuAla][B5(3)]DDAAFN[PyrS2][Bta][Bta]H-NH2 (staple 1-4, 4-11) [I-793]: the “NanoBRET Abs IC50” value is over 20 µM.

As for Ac-[αAllylPro]D[hLeu][B5(3)]DDAAFN[PyrS2][3Thi][Bta]Q-NH2 (staple 1-4, 4-11) [I-787], the “NanoBRET Abs IC50” value came out at 30.7 µM.

As to Ac-[αAllylPro]D[tBuAla][B5(3)]DDAAFN[PyrS2][3Thi][2Nal]H-NH2 (staple 1-4, 4-11) [I-790], the “NanoBRET Abs IC50” value was over 20 µM. For the molecule Ac-[αAllylPro]D[tBuAla][B5(13)]DDAAFN[PyrS2][2Thi][Bta]Q-NH2 (staple 1-4, 4-11) [I-778], the “NanoBRET Abs IC50” value came out at 11.2 µM.

As for Ac-[αAllylPro]D[tBuAla][B5(3)]DEAAFN[PyrS2][3Thi][Bta]-NH2 (staple 1-4, 4-11) [I-786], the “NanoBRET Abs IC50” value stood at 29.3 µM.

Regarding Ac-[αAllylPro]D[tBuAla][B5(13)]DDAAFN[PyrS2][Phe(2-OMe)][Bta]Q-NH2 (staple 1-4, 4-11) [I-780], the “NanoBRET Abs IC50” value was 20.7 µM. For Ac-[αAllylPro]D[tBuAla][B5(13)]DDAAFN[PyrS2][Phe(2-Cl)][Bta]Q-NH2 (staple 1-4, 4-11) [I-783], the “NanoBRET Abs IC50” value was 6.2 µM. On to Ac-[αAllylPro]D[tBuAla][B5(3)]DDAAFN[PyrS2][3Thi]WH-NH2 (staple 1-4, 4-11) [I-792], for which the “NanoBRET Abs IC50” value was over 20 µM. On to Ac-[αAllylPro]D[tBuAla][B5(13)]DDAAFN[PyrS3][3Thi][Bta]H-NH2 (staple 1-4, 4-11) [I-775], for which the “NanoBRET Abs IC50” value was over 20 µM.

These data come from patent US20240116985A1 (published 2024).
